Laboratory results taken from patent US20260001928A1 (CORTERIA PHARMACEUTICALS, priority 2022, published 2026).
*1 amine or outer side, *2 acyl side, *3 side chain or, on linkers, in order; H or OH if unused. Primed or numbered codes have the meaning given here. Side-chain parts run from the residue outwards. [ ]: non-standard residue; d: D form. The star is where a group is joined. Thp′ = 4-amino-tetrahydro-2H-pyran-4-yl-acetic acid, O=C(CC1(N[*:1])CCOCC1)[*:2]; C18 diacid = O=C(O)CCCCCCCCCCCCCCCCC(=O)*; γGlu = O=C(O)[C@H](CCC(=O)[*:2])N[*:1]; Api = NC1(C(=O)O)CCNCC1; Pentanoyl = CCCCC(=O)*; AEEA = NCCOCCOCC(=O)O; Aib = CC(C)(N)C(=O)O

T1: CRF1R receptor (UniProt P34998 24-415, limits assumed)
T1 sequence (looked up): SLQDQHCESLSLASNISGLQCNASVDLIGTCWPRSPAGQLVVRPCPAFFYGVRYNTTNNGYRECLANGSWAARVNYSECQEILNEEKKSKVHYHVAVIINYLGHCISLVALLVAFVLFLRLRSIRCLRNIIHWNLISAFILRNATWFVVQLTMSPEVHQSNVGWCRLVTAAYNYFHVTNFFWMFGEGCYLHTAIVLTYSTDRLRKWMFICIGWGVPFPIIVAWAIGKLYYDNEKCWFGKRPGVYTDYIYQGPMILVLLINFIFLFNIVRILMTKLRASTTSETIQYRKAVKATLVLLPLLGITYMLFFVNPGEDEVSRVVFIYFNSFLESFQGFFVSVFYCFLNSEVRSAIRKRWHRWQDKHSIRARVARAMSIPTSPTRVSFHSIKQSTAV


Key:
[1] = molecular target: human corticotropin-releasing factor 2a (CRF2a receptor) (human), Q13324; assay: cell-based or functional assay
CRF1R receptor = molecular target: T1, CRF1R receptor; assay: cell-based or functional assay

human corticotropin-releasing factor 2a (CRF2a receptor) (human), Q13324, sequence (Q13324 20-411): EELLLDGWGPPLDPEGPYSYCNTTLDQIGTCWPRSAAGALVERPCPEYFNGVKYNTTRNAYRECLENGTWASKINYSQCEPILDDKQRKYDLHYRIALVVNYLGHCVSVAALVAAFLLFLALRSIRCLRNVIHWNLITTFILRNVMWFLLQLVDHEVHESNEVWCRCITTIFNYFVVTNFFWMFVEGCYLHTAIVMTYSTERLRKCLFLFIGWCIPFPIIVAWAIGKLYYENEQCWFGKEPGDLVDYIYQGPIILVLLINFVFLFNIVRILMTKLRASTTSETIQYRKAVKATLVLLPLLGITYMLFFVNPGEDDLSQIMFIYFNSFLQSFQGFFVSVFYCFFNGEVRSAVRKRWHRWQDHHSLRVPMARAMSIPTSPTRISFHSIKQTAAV

| Binder | EC50 [nM] (cAMP) [1] | Emax (% I) (CRF1R receptor) | EC50 (CRF1R receptor) |
| --- | --- | --- | --- |
| Pentanoyl-VLSLD[dV]PIGLK([γGlu-C18 diacid])KILLEQEKQKKQREQAETN[Aib]QILAQV-NH2 (SMILES CCCCC(=O)N[C@H](C(=O)N[C@@H](CC(C)C)C(=O)N[C@@H](CO)C(=O)N[C@@H](CC(C)C)C(=O)N[C@@H](CC(=O)O)C(=O)N[C@@H](C(=O)N1CCC[C@H]1C(=O)N[C@H](C(=O)NCC(=O)N[C@@H](CC(C)C)C(=O)N[C@@H](CCCCNC(=O)CC[C@H](NC(=O)CCCCCCCCCCCCCCCCC(=O)O)C(=O)O)C(=O)N[C@@H](CCCCN)C(=O)N[C@H](C(=O)N[C@@H](CC(C)C)C(=O)N[C@@H](CC(C)C)C(=O)N[C@@H](CCC(=O)O)C(=O)N[C@@H](CCC(N)=O)C(=O)N[C@@H](CCC(=O)O)C(=O)N[C@@H](CCCCN)C(=O)N[C@@H](CCC(N)=O)C(=O)N[C@@H](CCCCN)C(=O)N[C@@H](CCCCN)C(=O)N[C@@H](CCC(N)=O)C(=O)N[C@@H](CCCNC(=N)N)C(=O)N[C@@H](CCC(=O)O)C(=O)N[C@@H](CCC(N)=O)C(=O)N[C@@H](C)C(=O)N[C@@H](CCC(=O)O)C(=O)N[C@H](C(=O)N[C@@H](CC(N)=O)C(=O)NC(C)(C)C(=O)N[C@@H](CCC(N)=O)C(=O)N[C@H](C(=O)N[C@@H](CC(C)C)C(=O)N[C@@H](C)C(=O)N[C@@H](CCC(N)=O)C(=O)N[C@H](C(N)=O)C(C)C)[C@@H](C)CC)[C@@H](C)O)[C@@H](C)CC)[C@@H](C)CC)C(C)C)C(C)C) [SEQ ID NO 195] | 0.21 nM | 42% | 180 nM |
| Ac-IVLSLD[dV]PIKLK([AEEA-AEEA-γGlu-C18 diacid])KILLEQEKQK[Aib]QREQAETN[Api]QILAQV-NH2 (SMILES CC[C@H](C)[C@H](NC(C)=O)C(=O)N[C@H](C(=O)N[C@@H](CC(C)C)C(=O)N[C@@H](CO)C(=O)N[C@@H](CC(C)C)C(=O)N[C@@H](CC(=O)O)C(=O)N[C@@H](C(=O)N1CCC[C@H]1C(=O)N[C@H](C(=O)N[C@@H](CCCCN)C(=O)N[C@@H](CC(C)C)C(=O)N[C@@H](CCCCNC(=O)COCCOCCNC(=O)COCCOCCNC(=O)CC[C@H](NC(=O)CCCCCCCCCCCCCCCCC(=O)O)C(=O)O)C(=O)N[C@@H](CCCCN)C(=O)N[C@H](C(=O)N[C@@H](CC(C)C)C(=O)N[C@@H](CC(C)C)C(=O)N[C@@H](CCC(=O)O)C(=O)N[C@@H](CCC(N)=O)C(=O)N[C@@H](CCC(=O)O)C(=O)N[C@@H](CCCCN)C(=O)N[C@@H](CCC(N)=O)C(=O)N[C@@H](CCCCN)C(=O)NC(C)(C)C(=O)N[C@@H](CCC(N)=O)C(=O)N[C@@H](CCCNC(=N)N)C(=O)N[C@@H](CCC(=O)O)C(=O)N[C@@H](CCC(N)=O)C(=O)N[C@@H](C)C(=O)N[C@@H](CCC(=O)O)C(=O)N[C@H](C(=O)N[C@@H](CC(N)=O)C(=O)NC1(C(=O)N[C@@H](CCC(N)=O)C(=O)N[C@H](C(=O)N[C@@H](CC(C)C)C(=O)N[C@@H](C)C(=O)N[C@@H](CCC(N)=O)C(=O)N[C@H](C(N)=O)C(C)C)[C@@H](C)CC)CCNCC1)[C@@H](C)O)[C@@H](C)CC)[C@@H](C)CC)C(C)C)C(C)C) [SEQ ID NO 196] | 2.2 nM | 9% | – |
| Pentanoyl-VLSLD[dV]PIKLK([γGlu-C18 diacid])KILLEQEKQK[Aib]QREQAETN[Aib]QILAQV-NH2 (SMILES CCCCC(=O)N[C@H](C(=O)N[C@@H](CC(C)C)C(=O)N[C@@H](CO)C(=O)N[C@@H](CC(C)C)C(=O)N[C@@H](CC(=O)O)C(=O)N[C@@H](C(=O)N1CCC[C@H]1C(=O)N[C@H](C(=O)N[C@@H](CCCCN)C(=O)N[C@@H](CC(C)C)C(=O)N[C@@H](CCCCNC(=O)CC[C@H](NC(=O)CCCCCCCCCCCCCCCCC(=O)O)C(=O)O)C(=O)N[C@@H](CCCCN)C(=O)N[C@H](C(=O)N[C@@H](CC(C)C)C(=O)N[C@@H](CC(C)C)C(=O)N[C@@H](CCC(=O)O)C(=O)N[C@@H](CCC(N)=O)C(=O)N[C@@H](CCC(=O)O)C(=O)N[C@@H](CCCCN)C(=O)N[C@@H](CCC(N)=O)C(=O)N[C@@H](CCCCN)C(=O)NC(C)(C)C(=O)N[C@@H](CCC(N)=O)C(=O)N[C@@H](CCCNC(=N)N)C(=O)N[C@@H](CCC(=O)O)C(=O)N[C@@H](CCC(N)=O)C(=O)N[C@@H](C)C(=O)N[C@@H](CCC(=O)O)C(=O)N[C@H](C(=O)N[C@@H](CC(N)=O)C(=O)NC(C)(C)C(=O)N[C@@H](CCC(N)=O)C(=O)N[C@H](C(=O)N[C@@H](CC(C)C)C(=O)N[C@@H](C)C(=O)N[C@@H](CCC(N)=O)C(=O)N[C@H](C(N)=O)C(C)C)[C@@H](C)CC)[C@@H](C)O)[C@@H](C)CC)[C@@H](C)CC)C(C)C)C(C)C) [SEQ ID NO 194] | 0.44 nM | 10% | – |

More lines, now with the values ahead:

| EC50 [nM] (cAMP) [1] | Emax (% I) (CRF1R receptor) | EC50 (CRF1R receptor) | Binder |
| --- | --- | --- | --- |
| 1.28 nM | 5% | – | Ac-IVLSLD[dV]PIKLK([AEEA-AEEA-γGlu-C18 diacid])KILLEQEKQK[Aib]QREQAETN[Aib]QILAQV-NH2 (SMILES CC[C@H](C)[C@H](NC(C)=O)C(=O)N[C@H](C(=O)N[C@@H](CC(C)C)C(=O)N[C@@H](CO)C(=O)N[C@@H](CC(C)C)C(=O)N[C@@H](CC(=O)O)C(=O)N[C@@H](C(=O)N1CCC[C@H]1C(=O)N[C@H](C(=O)N[C@@H](CCCCN)C(=O)N[C@@H](CC(C)C)C(=O)N[C@@H](CCCCNC(=O)COCCOCCNC(=O)COCCOCCNC(=O)CC[C@H](NC(=O)CCCCCCCCCCCCCCCCC(=O)O)C(=O)O)C(=O)N[C@@H](CCCCN)C(=O)N[C@H](C(=O)N[C@@H](CC(C)C)C(=O)N[C@@H](CC(C)C)C(=O)N[C@@H](CCC(=O)O)C(=O)N[C@@H](CCC(N)=O)C(=O)N[C@@H](CCC(=O)O)C(=O)N[C@@H](CCCCN)C(=O)N[C@@H](CCC(N)=O)C(=O)N[C@@H](CCCCN)C(=O)NC(C)(C)C(=O)N[C@@H](CCC(N)=O)C(=O)N[C@@H](CCCNC(=N)N)C(=O)N[C@@H](CCC(=O)O)C(=O)N[C@@H](CCC(N)=O)C(=O)N[C@@H](C)C(=O)N[C@@H](CCC(=O)O)C(=O)N[C@H](C(=O)N[C@@H](CC(N)=O)C(=O)NC(C)(C)C(=O)N[C@@H](CCC(N)=O)C(=O)N[C@H](C(=O)N[C@@H](CC(C)C)C(=O)N[C@@H](C)C(=O)N[C@@H](CCC(N)=O)C(=O)N[C@H](C(N)=O)C(C)C)[C@@H](C)CC)[C@@H](C)O)[C@@H](C)CC)[C@@H](C)CC)C(C)C)C(C)C) [SEQ ID NO 197] |
| 1.7 nM | 8% | > 250 nM | Ac-IVLSLD[dV]PIKLK([AEEA-AEEA-γGlu-C18 diacid])KILLEQEKQKKQREQAETN[Thp′]QILAQV-NH2 [SEQ ID NO 198] |
